Holding throughout (test): activation reporter or marker
In experiment [1] the target is T1, preproinsulin peptide on HLA-DRA*01:01 / HLA-DRB1*03:01 (human).
T1 peptide: AEDLQVGQVELGGGP

For experiment [2], the target named is T2, preproinsulin peptide on HLA-DRA*01:01 / HLA-DRB1*09:01 (human).
T2 peptide: AEDLQVGQVELGGGP

In experiment [3] the target is T3, preproinsulin peptide on HLA-DQA1*05:01 / HLA-DQB1*02:02 (human).
T3 peptide: YLVCGERGFFYTPKT

Experiment [4] deals with T4, preproinsulin peptide on HLA-DQA1*05:01 / HLA-DQB1*02:01 (human).
T4 peptide: YLVCGERGFFYTPKT

Experiment [5] addresses T5, insulin B-chain peptide on HLA-DRA*01:01 / HLA-DRB1*04:01 (human).
T5 peptide: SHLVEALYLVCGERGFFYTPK

The target in experiment [6] is T6, preproinsulin peptide on HLA-DRA*01:01 / HLA-DRB1*03:01 (human).
T6 peptide: QKRGIVEQCCTSICS

B1: 55.C10 (TCR)
alpha TRAV26-1 TRAJ26 CDR3: CIVRSHGQNFVF
beta TRBV20-1 TRBJ2-7 CDR3: CSARPGTRNYEQYF
For B1, the binding result in experiment [1] and in experiment [2] was “no recognition” throughout.

B2: 56.B1 (TCR)
alpha TRAV13-1 TRAJ40 CDR3: CAVLSPSGTYKYIF
beta TRBV7-9 TRBJ1-4 CDR3: CASSLMGNPHEKLFF
Consider B2, for which the binding result in experiment [3] and in experiment [4] was “recognises” in each case.

B3: 23.G8 (TCR)
alpha TRAV39 TRAJ56 CDR3: CAWRTGANSKLTF
beta TRBV24-1 TRBJ2-2 CDR3: CATGLAANTGELFF
For B3, the binding result in experiment [5] is “no recognition”.

B4: 95.A9-1 (TCR)
alpha TRAV9-2 TRAJ18 CDR3: CALRTDRGSTLGRLYF
beta TRBV11-2 TRBJ1-6 CDR3: CASSLQSSYNSPLHF
Take B4: the binding result in experiment [6] is given as “no recognition”.

Source of the values: publication PMC8027116 (2021).
